Values joined by “and” are separate entries in the source; they are usually repeats but may differ in a detail not shown here. Identical values can stand only once.

The labels stand for the following.
T1: MtrA (Mycobacterium tuberculosis H37Rv) (UniProt P9WGM7)
T1 sequence: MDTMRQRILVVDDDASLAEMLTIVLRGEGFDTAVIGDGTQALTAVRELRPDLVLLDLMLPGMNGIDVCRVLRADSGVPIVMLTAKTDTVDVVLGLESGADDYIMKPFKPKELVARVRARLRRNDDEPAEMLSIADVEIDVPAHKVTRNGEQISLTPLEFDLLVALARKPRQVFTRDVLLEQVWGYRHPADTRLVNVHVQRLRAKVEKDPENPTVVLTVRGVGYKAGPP

T2: MtrA (Mycobacterium tuberculosis H37Rv, UniProt P9WGM7 1-228)
T2 sequence: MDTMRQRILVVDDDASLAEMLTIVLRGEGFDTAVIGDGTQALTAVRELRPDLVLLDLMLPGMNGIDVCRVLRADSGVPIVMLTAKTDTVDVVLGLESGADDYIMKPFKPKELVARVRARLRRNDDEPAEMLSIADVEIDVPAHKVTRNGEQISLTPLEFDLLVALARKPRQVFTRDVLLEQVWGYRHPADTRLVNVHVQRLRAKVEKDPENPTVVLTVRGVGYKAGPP

B1: No-Binding fragment (dsDNA)
DNA 1: ACAGCGGGACGTTTTCGCGCTGCATC
DNA 2: GATGCAGCGCGAAAACGTCCCGCTGT
B2: Rv2524c fragment (dsDNA)
DNA 1: GTTTTGTTATCAAATCGTTATGCTGG
DNA 2: CCAGCATAACGATTTGATAACAAAAC
B3: Rv3859c fragment (dsDNA)
DNA 1: GTTACGTGATCGAATTGTGGTCCAGG
DNA 2: CCTGGACCACAATTCGATCACGTAAC
B4: Rv0309 fragment (dsDNA)
DNA 1: GCTTTGTCACCGCACAGTGACCCAGC
DNA 2: GCTGGGTCACTGTGCGGTGACAAAGC
B5: artificial highest-contribution sequence (dsDNA)
DNA 1: GTTTTGTTATCGTTTTGTGATATGGA
DNA 2: TCCATATCACAAAACGATAACAAAAC

One data set addresses T1, MtrA (Mycobacterium tuberculosis H37Rv). Put plainly: BLI.
Details: not given
In turn, Rv0320 fragment returned a Kd of 0.142 µM.
Rv0469 fragment registered a Kd of 119 µM.
Rv3246c fragment: the Kd was found to be 9880 µM.
On the same count and under the same terms, the same measure for Rv1918c fragment: 0.079 µM; for Rv3849 fragment: 9650 µM.

The target of another data set is T2, MtrA. Briefly: BLI. The note with it: protein: recombinant; tags: His6 (pET28a, BamHI/XhoI; N-terminal, inferred from stop codon in reverse primer); chain copies: 2; blunt.
B1: the binding result is reported as “no binding”.
As to B2, the Kd is 0.0462 µM and 0.0625 µM.
On the same count and under the same terms, the same measure for B3: 13.3 µM and 11.1 µM; for B4: 178 µM; for B5: 0.248 µM.

Usually Kd stands for the constant that tells how readily two partners part at equilibrium.

The record behind these values is PMC10609481, “Substrate DNA Promoting Binding of Mycobacterium tuberculosis MtrA by Facilitating Dimerization and Interpretation of Affinity by Minor Groove Width”.
